According to paper PMC12802937 (Nucleic Acids Research, 2026):

Legend:
Assay in all cases: SPR; Lge1-CT immobilised on a CM5 chip, Bre1-LR flown over; Biacore 8K, 25°C, 20 mM HEPES (pH 7.5), 200 mM sodium chloride, 0.02% Tween 20
Details in all cases: both partners purified
Bre1-LR K534E = target: T1, Bre1-LR K534E (budding yeast, UniProt Q07457 227-700, K534E)
T1 construct: source: E. coli BL21 Rosetta (DE3), purified (Ni-NTA, heparin, gel filtration)
T1 sequence (looked up): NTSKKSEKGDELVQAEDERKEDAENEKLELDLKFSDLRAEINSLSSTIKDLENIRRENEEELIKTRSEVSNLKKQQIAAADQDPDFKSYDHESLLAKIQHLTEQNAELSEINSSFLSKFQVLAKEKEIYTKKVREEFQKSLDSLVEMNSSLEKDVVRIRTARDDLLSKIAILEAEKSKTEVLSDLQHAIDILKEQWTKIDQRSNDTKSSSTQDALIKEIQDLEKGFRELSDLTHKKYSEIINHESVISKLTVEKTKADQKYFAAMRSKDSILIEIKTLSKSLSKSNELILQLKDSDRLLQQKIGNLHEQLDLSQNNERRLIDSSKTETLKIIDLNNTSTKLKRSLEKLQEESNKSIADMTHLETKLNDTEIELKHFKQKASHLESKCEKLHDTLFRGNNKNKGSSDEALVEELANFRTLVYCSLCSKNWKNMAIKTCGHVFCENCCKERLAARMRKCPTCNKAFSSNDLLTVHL

Bre1-LR K379A = target: T2, Bre1-LR K379A (budding yeast, UniProt Q07457 227-700, K379A)
T2 construct: source: E. coli BL21 Rosetta (DE3), purified (Ni-NTA, heparin, gel filtration)
T2 sequence (looked up): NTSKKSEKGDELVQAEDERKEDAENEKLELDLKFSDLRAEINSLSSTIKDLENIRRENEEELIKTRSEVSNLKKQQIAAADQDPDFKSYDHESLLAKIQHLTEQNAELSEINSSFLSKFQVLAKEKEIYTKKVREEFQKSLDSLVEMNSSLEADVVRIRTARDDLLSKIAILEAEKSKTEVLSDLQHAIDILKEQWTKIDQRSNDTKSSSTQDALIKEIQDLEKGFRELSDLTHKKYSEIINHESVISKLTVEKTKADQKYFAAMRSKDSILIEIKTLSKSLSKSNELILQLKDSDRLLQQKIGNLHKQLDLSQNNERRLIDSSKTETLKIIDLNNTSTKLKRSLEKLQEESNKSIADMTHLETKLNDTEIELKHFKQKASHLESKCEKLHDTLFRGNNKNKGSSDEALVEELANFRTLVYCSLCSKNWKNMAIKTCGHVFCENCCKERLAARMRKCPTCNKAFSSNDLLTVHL

Bre1-LR A489N = target: T3, Bre1-LR A489N (budding yeast, UniProt Q07457 227-700, A489N)
T3 construct: source: E. coli BL21 Rosetta (DE3), purified (Ni-NTA, heparin, gel filtration)
T3 sequence (looked up): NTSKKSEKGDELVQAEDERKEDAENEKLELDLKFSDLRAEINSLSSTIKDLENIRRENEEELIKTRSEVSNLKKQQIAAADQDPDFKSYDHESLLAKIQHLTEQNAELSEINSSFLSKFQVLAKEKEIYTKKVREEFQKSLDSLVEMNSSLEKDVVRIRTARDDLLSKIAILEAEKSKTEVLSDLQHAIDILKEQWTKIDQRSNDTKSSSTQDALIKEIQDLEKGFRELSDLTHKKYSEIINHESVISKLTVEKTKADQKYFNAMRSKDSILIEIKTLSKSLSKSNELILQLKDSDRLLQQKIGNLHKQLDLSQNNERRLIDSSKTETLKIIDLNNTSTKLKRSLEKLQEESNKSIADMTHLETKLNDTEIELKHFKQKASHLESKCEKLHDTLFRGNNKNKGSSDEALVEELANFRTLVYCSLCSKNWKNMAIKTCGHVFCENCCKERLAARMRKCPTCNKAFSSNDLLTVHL

Bre1-LR E378K/E500K = target: T4, Bre1-LR E378K/E500K (budding yeast, UniProt Q07457 227-700, E378K | E500K)
T4 construct: source: E. coli BL21 Rosetta (DE3), purified (Ni-NTA, heparin, gel filtration)
T4 sequence (looked up): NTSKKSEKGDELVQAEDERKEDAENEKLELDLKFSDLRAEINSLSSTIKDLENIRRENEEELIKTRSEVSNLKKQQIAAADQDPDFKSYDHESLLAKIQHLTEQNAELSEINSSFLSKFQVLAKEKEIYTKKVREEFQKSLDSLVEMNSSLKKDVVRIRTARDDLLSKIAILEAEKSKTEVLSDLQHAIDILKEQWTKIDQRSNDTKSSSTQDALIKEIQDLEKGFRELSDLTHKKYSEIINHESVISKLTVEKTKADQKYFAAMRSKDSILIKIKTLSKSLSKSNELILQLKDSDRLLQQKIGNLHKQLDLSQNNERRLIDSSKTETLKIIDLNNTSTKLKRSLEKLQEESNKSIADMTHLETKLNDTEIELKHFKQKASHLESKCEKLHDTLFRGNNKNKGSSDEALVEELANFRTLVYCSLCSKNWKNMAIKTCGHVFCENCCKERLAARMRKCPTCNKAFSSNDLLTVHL

- Kd (Bre1-LR K534E): 19.4 nM
- Kd (Bre1-LR K379A): 34 nM
- Kd (Bre1-LR A489N): 41.1 nM
- Kd (Bre1-LR E378K/E500K): 29 nM
B1: Lge1-CT (Lge1 residues 261–332), intein-chitin binding domain (CBD) tag construct (domain or fragment, budding yeast, UniProt Q02796 261-332, looked up)
chain: KNVKKTNNTESECEKAREVFKESDSIDSALEELNLKINSNELELRLLNNQCDKHALNIQLTQEKLDSLLLMQ
notes: Lge1, budding yeast, residues 261-332; residues 268–331 resolved in the electron density; the intein-CBD tag is named on the protein in the pull-down; also called intein-CBD-fused Lge1-CT; intein-CBD-tagged Lge1-CT; source: E. coli BL21 Rosetta (DE3): cleared cell extract on chitin resin (pull-down); purified (chitin, heparin, gel filtration) for ITC and SPR; co-purified with Bre1-LR for the …
